What was measured:
Format in all cases: biochemical
[1] = HTP-analysis of supernatants pretreated with bovine serum (MUGal hydrolysis); conditions: activity of the variant/activity of Rd3BB (SEQ ID NO: 13), yeast culture supernatant
Outline: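 Yeast INVSc1 culture supernatants containing secreted GLA variants were mixed with bovine serum (20:80) and held 1 h at 37° C. Serum-treated samples then reacted with MUGal (4 mM stock) in citrate/McIlvaine buffer (pH 4.3/4.8) for 180 min at 37° C., were quenched with sodium carbonate, and read by fluorescence (Ex 355, Em 448 nm).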

[2] = HTP-analysis of supernatants pretreated with base (MUGal hydrolysis); conditions: challenge at pH 8.2; activity of the variant/activity of Rd3BB (SEQ ID NO: 13); yeast culture supernatant
Outline: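 GLA variants were secreted by transformed INVSc1 yeast grown 66-84 h at 30° C. Supernatants were exposed to neutral-to-basic buffers (pH 7.0-9.7) at 37° C for 1-18 h, then assayed with MUGal in acidic citrate/McIlvaine buffer, with fluorescence read after quenching.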

[3] = HTP-analysis of yeast culture supernatants, no challenge (MUGal hydrolysis); conditions: activity of the variant/activity of Rd3BB (SEQ ID NO: 13), yeast culture supernatant
Outline: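 GLA variants expressed in yeast INVSc1, secreted into SD-Ura broth over 66-84 h at 30° C; clarified supernatants tested without challenge. Supernatant mixed with McIlvaine buffer pH 4.8 and 2 mM MUGal (citrate/KCl, pH 4.6), 37° C for 30-180 min, carbonate-quenched, fluorescence Ex 355/Em 448 nm.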

[4] = HTP-analysis of supernatants pretreated with acid (MUGal hydrolysis); conditions: challenge at pH 4.0; activity of the variant/activity of Rd3BB (SEQ ID NO: 13); yeast culture supernatant
Outline: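 Yeast INVSc1 supernatant, GLA variants; acid challenge: McIlvaine pH 3.3-4.3, 37° C., 1-3 h. Assay: MUGal in McIlvaine pH 4.8 plus citrate pH 4.3, 37° C., 30-180 min, Na2CO3 stop, Ex 355/Em 448 nm.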

Molecule | Relative Activity of GLA Variants After Challenge with Serum [1] | Relative Activity of GLA Variants After Challenge at pH 8.2 [2] | Relative Activity of GLA Variants After No Challenge (NC) [3] | Relative Activity of GLA Variants After Challenge at pH 4.0 [4]
343 (protein, Synthetic Polypeptide sequence of Variant No. 343 of mature Human GLA) LDNGLARTPTMGWLHWERFMCNLDCQEEPDSCISEKLFMEMAERMVSEGWKDAGYEYLCIDDCWMAPQRDSEGRLQADPQRFPHGIRQLANYVHSIGLKLGIYADVGNKTCAGFPGSFGYYDIDAQTFADWGVDLLKFDGCYCDSLENLADGYKHMSLALNRTGRSIVYSCEWPLYMWPFQKPNYTEIRQYCNHWRNFADIDDSWASIKSILDWTSRNQERIVDVAGPGGWNDPDMLVIGNFGLSWDQQVTQMALWAIMAAPLFMSNDLRHISPQAKALLQDKDVIAINQDPLGKQGYQLRKGDNFEVWERPLSGLAWAVAIINRQEIGGPRSYTIAVASLGKGVACNPACFITQLLPVKRKLGFYNWSSRLKSHINPTGTVLLQLENTMQMSLKDLL | + (+ = 0.5 to 1.5 relative activity over Rd3BB (SEQ ID NO: 13)) | + (+ = 0.5 to 1.5 relative activity over Rd3BB (SEQ ID NO: 13)) | + (+ = 0.5 to 1.5 relative activity over Rd3BB (SEQ ID NO: 13)) | + (+ = 0.5 to 1.5 relative activity over Rd3BB (SEQ ID NO: 13))
344 (protein, Synthetic Polypeptide sequence of Variant No. 344 of mature Human GLA) LDNGLARTPTMGWLHWERFMCNLDCQEEPDSCISEKLFMEMAERMVSEGWKDAGYEYLCIDDCWMAPQRDSEGRLQADPQRFPHGIRQLANYVHSIGLKLGIYADVGNKTCAGFPGSFGYYDIDAQTFADWGVDLLKFDGCYCDSLENLADGYKHMSLALNRTGRSIVYSCEWPLYMWPFQKPNYTEIRQYCNHWRNFADIDDSWASIKSILDWTSRNQERIVDVAGPGGWNDPDMLVIGNFGLSWDQQVTQMALWAIMAAPLFMSNDLRHISPQAKALLQDKDVIAINQDPLGKQGYQLRKGDNFEVWERPLSGLAWAVAIINRQEIGGPRSYTIAVASLGKGVACNPACFITQLLPVKRQLGFYNWTSRLKSHINPTGTVLLQLENTMQMSLKDLL | ++ (++ = >1.5 to 2.5 relative activity over Rd3BB (SEQ ID NO: 13)) | + (+ = 0.5 to 1.5 relative activity over Rd3BB (SEQ ID NO: 13)) | + (+ = 0.5 to 1.5 relative activity over Rd3BB (SEQ ID NO: 13)) | + (+ = 0.5 to 1.5 relative activity over Rd3BB (SEQ ID NO: 13))
345 (protein, Synthetic Polypeptide sequence of Variant No. 345 of mature Human GLA) LDNGLARTPTMGWLHWERFMCNLDCQEEPDSCISEKLFMEMAERMVSEGWKDAGYEYLCIDDCWMAPQRDSEGRLQADPQRFPHGIRQLANYVHSIGLKLGIYADVGNKTCAGFPGSFGYYDIDAQTFADWGVDLLKFDGCYCDSLENLADGYKHMSLALNRTGRSIVYSCEWPLYMWPFQKPNYTEIRQYCNHWRNFADIDDSWASIKSILDWTSRNPERIVDVAGPGGWNDPDMLVIGNFGLSWDQQVTQKALWAIMAAPLFMFNDLRHISPQAKALLQDKEVIAINPDPFGKQGYQLRKGDNFEGWERPLFGLAWAVAIINRQEIGGPRSYTIPVASLGEGVACNPACFITQLLPVKRKLGFYNWTSRLKSHINPTGTVLLQLENTMQMSLKDLL | + (+ = 0.5 to 1.5 relative activity over Rd3BB (SEQ ID NO: 13)) | +++ (+++ = >2.5 relative activity over Rd3BB (SEQ ID NO: 13)) | + (+ = 0.5 to 1.5 relative activity over Rd3BB (SEQ ID NO: 13)) | ++ (++ = >1.5 to 2.5 relative activity over Rd3BB (SEQ ID NO: 13))

Reference: patent publication US11278600B2, “Human alpha-galactosidase variants” (Codexis, Inc., priority 2014, dated 2022)
